For this series, the system named is CodY (Streptococcus pneumoniae D39). Description: EMSA. The settings on record: lowest CodY concentration giving binding, 10 nM DNA, 5X binding buffer: 20 mM Tris-HCl pH 7.5, 30 mM KCl, 1 mM DTT, 1 mM EDTA, 10% glycerol, room temperature, 30 min (Fig 4A,B) or 20 min (Fig 4C), 20 ul, 8% ….

For tpxD promoter probe (FAM), the binding reads like this: (2 mM H2O2) 400 nM; (no H2O2, no BCAA) 600 nM.

Source of the values: PMC5443158.
